This passage reports Mean fluorescence intensity results from patent US20110059082A1.

Assay [1] concerns the target complement factor C1q (purified recombinant C1q) (UniProt P02745). The assay can be described thus: flow cytometry, C1q binding to antibody-coated PBMCs, FITC anti-C1q; antibody 37.5 µg/ml.
For assay [2] the target is unchanged. In words: flow cytometry, C1q binding to antibody-coated PBMCs, FITC anti-C1q; antibody 75.0 µg/ml.
The target is the same in assay [3]. In words: flow cytometry, C1q binding to antibody-coated PBMCs, FITC anti-C1q; antibody 2.3 µg/ml.
Assay [4] has the same target. In words: flow cytometry, C1q binding to antibody-coated PBMCs, FITC anti-C1q; antibody 4.7 µg/ml.
Assay [5] has the same target. The assay can be described thus: flow cytometry, C1q binding to antibody-coated PBMCs, FITC anti-C1q; antibody 9.4 µg/ml.
The target is the same in assay [6]. The assay can be described thus: flow cytometry, C1q binding to antibody-coated PBMCs, FITC anti-C1q; antibody 1.2 µg/ml.
Assay [7] has the same target. The assay can be described thus: flow cytometry, C1q binding to antibody-coated PBMCs, FITC anti-C1q; antibody 150 µg/ml.
For assay [8] the target is unchanged. The assay can be described thus: flow cytometry, C1q binding to antibody-coated PBMCs, FITC anti-C1q; antibody 18.8 µg/ml.

complement factor C1q (purified recombinant C1q), sequence (P02745 23-245, chain 1 of 3): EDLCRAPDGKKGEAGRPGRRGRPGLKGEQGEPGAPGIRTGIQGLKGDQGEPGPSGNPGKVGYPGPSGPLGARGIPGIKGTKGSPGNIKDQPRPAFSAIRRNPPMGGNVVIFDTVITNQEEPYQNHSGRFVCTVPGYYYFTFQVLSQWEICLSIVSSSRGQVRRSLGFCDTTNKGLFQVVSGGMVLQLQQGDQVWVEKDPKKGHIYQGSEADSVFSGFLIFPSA
complement factor C1q (purified recombinant C1q), sequence (P02746 28-253, chain 2 of 3, further chain): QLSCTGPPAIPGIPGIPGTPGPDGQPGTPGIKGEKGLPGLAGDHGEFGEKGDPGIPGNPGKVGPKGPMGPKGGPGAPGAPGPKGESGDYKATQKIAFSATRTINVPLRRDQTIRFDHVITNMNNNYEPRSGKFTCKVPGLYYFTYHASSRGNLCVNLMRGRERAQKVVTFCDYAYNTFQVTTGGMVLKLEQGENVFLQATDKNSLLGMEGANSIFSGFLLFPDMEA
complement factor C1q (purified recombinant C1q), sequence (P02747 29-245, chain 3 of 3, further chain): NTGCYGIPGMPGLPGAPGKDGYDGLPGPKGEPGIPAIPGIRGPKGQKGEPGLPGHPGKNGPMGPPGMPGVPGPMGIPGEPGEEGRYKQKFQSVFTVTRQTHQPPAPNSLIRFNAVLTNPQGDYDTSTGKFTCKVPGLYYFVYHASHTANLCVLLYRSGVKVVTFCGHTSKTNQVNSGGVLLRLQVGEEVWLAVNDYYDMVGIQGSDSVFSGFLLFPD

ATG (Tecelac) (antibody): the Mean fluorescence intensity stood at 732 MFI in assay [1]; 766 MFI in assay [2]; 371 MFI in assay [3]; 491 MFI in assay [4]; 541 MFI in assay [5]; 302 MFI in assay [6]. The Mean fluorescence intensity in assay [7] is 782 MFI; in assay [8], 672 MFI.

On to “humanized B-F5 H37L/L4M IgG1 (BT061) (antibody)”, for which the Mean fluorescence intensity in assay [1] was determined as 205 MFI; in assay [2], 200 MFI; in assay [3], 199 MFI; in assay [4], 198 MFI; in assay [5], 210 MFI; in assay [6], 193 MFI. Further, the Mean fluorescence intensity in assay [7] was 199 MFI; in assay [8], 217 MFI.
